From patent US20200190143A1
One block for each binder: values may come before it. No end group written: not given here.

Assays:
[1] = molecular target: fibroblast growth factor receptor on fibroblasts; assay: capsule and fibroblasts cultured together at 4° C. for 1 hour
[2] = molecular target: fibroblast growth factor receptor on fibroblasts; assay: flow cytometry (FACS), fluorescence immunoassay, on fibroblasts
[3] = molecular target: fibroblast growth factor receptor on fibroblasts; assay: binding to fibroblasts as in Example 3-1; peptide density 2 peptides/µm^2; reference set to 10
[4] = molecular target: integrin receptor (beta-1 family) on keratinocytes; assay: flow cytometry (FACS), fluorescence immunoassay, on keratinocytes
[5] = molecular target: fibroblast growth factor receptor on fibroblasts; assay: binding to fibroblasts as in Example 3-1; peptide density 10 peptides/µm^2
[6] = molecular target: melanocortin receptor on melanocytes; assay: flow cytometry (FACS), fluorescence immunoassay, on melanocytes
[7] = molecular target: melanocortin receptor on melanocytes; assay: binding of alpha-MSH to melanocytes after treatment with 10 µM capsule 2; competitor alpha-MSH
[8] = molecular target: melanocortin receptor on melanocytes; assay: interference with alpha-MSH binding to melanocytes as in Example 4-1; peptide density 2 peptides/µm^2; reference set to 10
[9] = molecular target: fibroblast growth factor receptor on fibroblasts; assay: binding to fibroblasts as in Example 3-1; peptide density 0.05 peptides/µm^2
[10] = molecular target: melanocortin receptor on melanocytes; assay: interference with alpha-MSH binding to melanocytes as in Example 4-1; peptide density 7 peptides/µm^2
[11] = molecular target: melanocortin receptor on melanocytes; assay: interference with alpha-MSH binding to melanocytes as in Example 4-1; peptide density 10 peptides/µm^2
[12] = molecular target: melanocortin receptor on melanocytes; assay: interference with alpha-MSH binding to melanocytes as in Example 4-1; peptide density 0.1 peptides/µm^2
[13] = molecular target: fibroblast growth factor receptor on fibroblasts; assay: binding to fibroblasts as in Example 3-1; peptide density 7 peptides/µm^2
[14] = molecular target: melanocortin receptor on melanocytes; assay: interference with alpha-MSH binding to melanocytes as in Example 4-1; peptide density 0.05 peptides/µm^2
[15] = molecular target: melanocortin receptor on melanocytes; assay: interference with alpha-MSH binding to melanocytes as in Example 4-1; peptide density 10.5 peptides/µm^2
[16] = molecular target: fibroblast growth factor receptor on fibroblasts; assay: binding to fibroblasts as in Example 3-1; peptide density 10.5 peptides/µm^2
[17] = molecular target: fibroblast growth factor receptor on fibroblasts; assay: binding to fibroblasts as in Example 3-1; peptide density 0.1 peptides/µm^2

fold binding affinity against the microcapsule to which the peptide was not linked [1]: 4 times | binding rate [2]: 75% | binding affinity to fibroblasts, relative (capsule 1-3 = 10) (relative to capsule 1-3 = 10) [3]: 10
B1: capsule 1 (microcapsule to which the peptide of SEQ ID NO: 1 was linked) (peptide)
peptide: AKST
modifications: not fully specified (N-terminus); printed as Ala-Lys-Ser-Thr; also: N-terminus amide-linked to microcapsule surface carboxyl (EDAC/NHS)

binding rate [4]: 85%
B2: capsule 3 (microcapsule to which the peptide of SEQ ID NO: 3 was linked) (peptide)
peptide: ADGSP
modifications: not fully specified (N-terminus); printed as Ala-Asp-Gly-Ser-Pro; also: N-terminus linked to microcapsule surface carboxyl (EDAC/NHS)

binding affinity to fibroblasts, relative (capsule 1-3 = 10) (relative to capsule 1-3 = 10) [5]: 7.5
B3: capsule 1-5 (peptide)
peptide: AKST
modifications: not fully specified (N-terminus); printed as Ala-Lys-Ser-Thr; also: N-terminus amide-linked to microcapsule surface carboxyl (EDAC/NHS)

binding affinity (binding rate) [6]: 70% | percent reduction of the binding of melanocyte and alpha-MSH [7]: 95% | binding interference of melanocyte and alpha-MSH, relative (capsule 2-3 = 10) (relative to capsule 2-3 = 10) [8]: 10
B4: capsule 2 (microcapsule to which the peptide of SEQ ID NO: 2 was linked) (peptide)
peptide: EGHKIFPSWY
modifications: not fully specified (N-terminus); printed as Glu-Gly-His-Lys-Ile-Phe-Pro-Ser-Trp-Tyr; also: N-terminus amide-linked to microcapsule surface carboxyl (EDAC/NHS)

binding affinity to fibroblasts, relative (capsule 1-3 = 10) (relative to capsule 1-3 = 10) [9]: 2
B5: capsule 1-1 (peptide)
peptide: AKST
modifications: not fully specified (N-terminus); printed as Ala-Lys-Ser-Thr; also: N-terminus amide-linked to microcapsule surface carboxyl (EDAC/NHS)

binding interference of melanocyte and alpha-MSH, relative (capsule 2-3 = 10) (relative to capsule 2-3 = 10) [10]: 10
B6: capsule 2-4 (peptide)
peptide: EGHKIFPSWY
modifications: not fully specified (N-terminus); printed as Glu-Gly-His-Lys-Ile-Phe-Pro-Ser-Trp-Tyr; also: N-terminus linked to microcapsule surface carboxyl (EDAC/NHS)

binding interference of melanocyte and alpha-MSH, relative (capsule 2-3 = 10) (relative to capsule 2-3 = 10) [11]: 7
B7: capsule 2-5 (peptide)
peptide: EGHKIFPSWY
modifications: not fully specified (N-terminus); printed as Glu-Gly-His-Lys-Ile-Phe-Pro-Ser-Trp-Tyr; also: N-terminus linked to microcapsule surface carboxyl (EDAC/NHS)

binding interference of melanocyte and alpha-MSH, relative (capsule 2-3 = 10) (relative to capsule 2-3 = 10) [12]: 7.5
B8: capsule 2-2 (peptide)
peptide: EGHKIFPSWY
modifications: not fully specified (N-terminus); printed as Glu-Gly-His-Lys-Ile-Phe-Pro-Ser-Trp-Tyr; also: N-terminus amide-linked to microcapsule surface carboxyl (EDAC/NHS)

binding affinity to fibroblasts, relative (capsule 1-3 = 10) (relative to capsule 1-3 = 10) [13]: 9.5
B9: capsule 1-4 (peptide)
peptide: AKST
modifications: not fully specified (N-terminus); printed as Ala-Lys-Ser-Thr; also: N-terminus amide-linked to microcapsule surface carboxyl (EDAC/NHS)

binding interference of melanocyte and alpha-MSH, relative (capsule 2-3 = 10) (relative to capsule 2-3 = 10) [14]: 3
B10: capsule 2-1 (peptide)
peptide: EGHKIFPSWY
modifications: not fully specified (N-terminus); printed as Glu-Gly-His-Lys-Ile-Phe-Pro-Ser-Trp-Tyr; also: N-terminus amide-linked to microcapsule surface carboxyl (EDAC/NHS)

binding interference of melanocyte and alpha-MSH, relative (capsule 2-3 = 10) (relative to capsule 2-3 = 10) [15]: 3
B11: capsule 2-6 (peptide)
peptide: EGHKIFPSWY
modifications: not fully specified (N-terminus); printed as Glu-Gly-His-Lys-Ile-Phe-Pro-Ser-Trp-Tyr; also: N-terminus linked to microcapsule surface carboxyl (EDAC/NHS)

binding affinity to fibroblasts, relative (capsule 1-3 = 10) (relative to capsule 1-3 = 10) [16]: 3.5
B12: capsule 1-6 (peptide)
peptide: AKST
modifications: not fully specified (N-terminus); printed as Ala-Lys-Ser-Thr; also: N-terminus amide-linked to microcapsule surface carboxyl (EDAC/NHS)

binding affinity to fibroblasts, relative (capsule 1-3 = 10) (relative to capsule 1-3 = 10) [17]: 7
B13: capsule 1-2 (peptide)
peptide: AKST
modifications: not fully specified (N-terminus); printed as Ala-Lys-Ser-Thr; also: N-terminus amide-linked to microcapsule surface carboxyl (EDAC/NHS)
